Experimental data as given in FireProtDB (doi:10.1006/jmbi.2000.3776).

B1: Major outer membrane lipoprotein Lpp, P69776 (parent)
chain: MKATKLVLGAVILGSTLLAGCSSNAKIDQLSSDVQTLNAKVDQLSNDVNAMRSDVQAAKDDAARANQRLDNMATKYRK

Variants of: B1
Settings: Escherichia coli (strain K12), pH 7, CD, structure 1EQ7, whole UniProt chain shown; for ddG of mutation (higher = less stable) / unfolding free energy: 4 °C, GdnHCl, PBS; for Tm / change of melting temperature, mutant - wild type (higher = more stable): Thermal, Sodium phosphate 50mM, NaCl 150mM

| Variant | ddG of mutation (higher = less stable) | unfolding free energy | Tm | change of melting temperature, mutant - wild type (higher = more stable) |
| --- | --- | --- | --- | --- |
| Y76A | 1.1 kcal/mol | 19.4 kcal/mol | 63 °C | -4 °C |
| S23A | 0.8 kcal/mol | 19.7 kcal/mol | 64 °C | -3 °C |
